Measurements from publication PMC13572447, “USP5 acts as a proteolytic switch to control SDE2 function via UBL-directed cleavage” (Nature Communications, 2026).
Substitutions are numbered along the chain they refer to. Names may count otherwise.

B1: HA-SDE2UBL-PA activity-based probe (domain or fragment, human, UniProt Q6IQ49-1 1-76, looked up)
chain: MAEAAALVWIRGPGFGCKAVRCASGRCTVRDFIHRHCQDQNVPVENFFVKCNGALINTSDTVQHGAVYSLEPRLCG
modifications: C-terminal propargylamide: Gly77 replaced with a propargyl electrophilic warhead
notes: Silencing Defective 2 (SDE2), human, ubiquitin-like domain residues 1-76; Reacts covalently with the catalytic cysteine of the protease that recognises it; also called HA-SDE2UBL-ABP; SDE2UBL probe; not shown: HA, N-terminal, kept
B2: SDE2UBL without the terminal Gly77 (domain or fragment, human, UniProt Q6IQ49-1 1-76, looked up)
chain: B1 chain
notes: Silencing Defective 2 (SDE2), human, ubiquitin-like domain with the terminal Gly77 removed (residues 1-76); also called SDE2UBLΔG77
B3: wild-type USP5 (ubiquitin-specific protease 5), recombinant (enzyme, human, UniProt P45974-1 1-858, looked up)
chain: MAELSEEALLSVLPTIRVPKAGDRVHKDECAFSFDTPESEGGLYICMNTFLGFGKQYVERHFNKTGQRVYLHLRRTRRPKEEDPATGTGDPPRKKPTRLAIGVEGGFDLSEEKFELDEDVKIVILPDYLEIARDGLGGLPDIVRDRVTSAVEALLSADSASRKQEVQAWDGEVRQVSKHAFSLKQLDNPARIPPCGWKCSKCDMRENLWLNLTDGSILCGRRYFDGSGGNNHAVEHYRETGYPLAVKLGTITPDGADVYSYDEDDMVLDPSLAEHLSHFGIDMLKMQKTDKTMTELEIDMNQRIGEWELIQESGVPLKPLFGPGYTGIRNLGNSCYLNSVVQVLFSIPDFQRKYVDKLEKIFQNAPTDPTQDFSTQVAKLGHGLLSGEYSKPVPESGDGERVPEQKEVQDGIAPRMFKALIGKGHPEFSTNRQQDAQEFFLHLINMVERNCRSSENPNEVFRFLVEEKIKCLATEKVKYTQRVDYIMQLPVPMDAALNKEELLEYEEKKRQAEEEKMALPELVRAQVPFSSCLEAYGAPEQVDDFWSTALQAKSVAVKTTRFASFPDYLVIQIKKFTFGLDWVPKKLDVSIEMPEELDISQLRGTGLQPGEEELPDIAPPLVTPDEPKGSLGFYGNEDEDSFCSPHFSSPTSPMLDESVIIQLVEMGFPMDACRKAVYYTGNSGAEAAMNWVMSHMDDPDFANPLILPGSSGPGSTSAAADPPPEDCVTTIVSMGFSRDQALKALRATNNSLERAVDWIFSHIDDLDAEAAMDISEGRSAADSISESVPVGPKVRDGPGKYQLFAFISHMGTSTMCGHYVCHIKKEGRWVIYNDQKVCASEKPPKDLGYIYFYQRVAS
notes: ubiquitin-specific protease 5 (USP5), human; No removal of the His tag is described; the TR-FRET assay detects the His-tagged protein with an anti-His6 antibody; also called USP5^WT; His-USP5; source: E. coli BL21 (DE3), purified (Ni-NTA, SEC Superdex 200)
B4: catalytically inactive USP5 C335A, recombinant (enzyme, human, UniProt P45974-1 1-858, looked up)
chain: B3 chain with C335A
notes: ubiquitin-specific protease 5 (USP5), human, catalytic Cys335 changed to Ala; Named His-USP5^C335A in the TR-FRET assay; also called His-USP5^C335A; source: E. coli BL21 (DE3), purified (Ni-NTA, SEC Superdex 200)
B5: SDE2 ubiquitin-like domain, SDE2UBL(1-77) (domain or fragment, human, UniProt Q6IQ49-1 1-77, looked up)
chain: MAEAAALVWIRGPGFGCKAVRCASGRCTVRDFIHRHCQDQNVPVENFFVKCNGALINTSDTVQHGAVYSLEPRLCGG
notes: Silencing Defective 2 (SDE2), human, N-terminal ubiquitin-like domain, residues 1-77, ending in the free Gly76-Gly77 motif; also called SDE2 1-77; source: E. coli BL21 (DE3), purified (Ni-NTA, SUMO protease, reverse Ni-NTA, SEC Superdex 75); not shown: His, N-terminal, cleaved; SUMO, N-terminal, cleaved

Assays:
Conditions in all cases: both partners purified
[1] = biological target: B3; assay: activity-based probe labelling (covalent adduct on SDS-PAGE); purified DUB 1 µM with probe 2 µM in 50 mM Tris pH 7.5, 1 mM DTT, 37 °C; quenched with LDS/DTT; shows only the covalent probe-enzyme adduct as a band shift
[2] = biological target: B3; assay: ITC; SDE2 construct or Ub titrated into USP5 construct; ITC200, 298 K; 50 mM HEPES, 100 mM NaCl, 1 mM TCEP, pH 7.5; duplicate experiments
[3] = biological target: T1, Ub-PA activity-based probe (His-Ub-PA) (human, UniProt P0CG48 1-75, C-terminal propargylamide (PA) warhead); assay: activity-based probe labelling (covalent adduct on SDS-PAGE); purified DUB 1 µM with probe 2 µM in 50 mM Tris pH 7.5, 1 mM DTT, 37 °C; quenched with LDS/DTT; shows only the covalent probe-enzyme adduct as a band shift
T1 construct: ubiquitin residues 1-75; The plasmid name holds a 3C site between His and Ub; also called Ub-ABP; source: plasmid pTXB1_His-3C-Ub (1-75); obtained by the same method as HA-SDE2UBL-PA

[4] = biological target: T2, ubiquitin (monoubiquitin) (human, UniProt P0CG48 1-76); assay: HDX-MS; USP5^WT 6 µM with or without 200 µM ubiquitin or SDE2UBL, 30 min; 20 mM HEPES pH 7.5, 150 mM NaCl, 1 mM DTT; exchange 0.3 to 3000 s; pepsin digestion
T2 construct: ubiquitin, human

[5] = biological target: T2, ubiquitin (monoubiquitin); assay: ITC; SDE2 construct or Ub titrated into USP5 construct; ITC200, 298 K; 50 mM HEPES, 100 mM NaCl, 1 mM TCEP, pH 7.5; duplicate experiments
USP5 C335R, recombinant = biological target: T3, USP5 C335R, recombinant (human, UniProt P45974-1 1-858, C335R); assay: as above
T3 construct: ubiquitin-specific protease 5 (USP5), human, Cys335 changed to Arg; source: E. coli BL21 (DE3), purified (Ni-NTA, SEC Superdex 200)
T3 sequence (looked up): B3 chain with C335R

[6] = biological target: B4; assay: as above

B1: binds [1].

B2: binds [2].

B3: binds [3]; binds [4].

For B4, the Kd [5] was 11.7 ± 9.1 nM.

For B5, the Kd (USP5 C335R, recombinant) was 2150 nM, the “stoichiometry N” value (USP5 C335R, recombinant) was 1 and the Kd [6] was 1670 nM. The “stoichiometry N” value [6] was 2 and the Kd [2] was 26600 nM.
